Laboratory results taken from patent publication US20220193270A1, “METHOD FOR ENHANCING TUMOR GROWTH” (MINERVA BIOTECHNOLOGIES CORPORATION, priority 2013, published 2022).

Test system: T47D breast cancer cells
Experiment: T47D xenograft engraftment, cells mixed with Matrigel plus NME7, with or without daily NME7 injections
Format: in vivo, nu/nu mice
Experimental: Example 1: Immune-compromised nu/nu mice between 40-60 days old were implanted with 90-day estrogen release pellets to foster the engraftment and growth of breast tumor cells. Human T47D breast cancer cells were mixed 1:2 with Matrigel then injected into the flank of the mouse (4 million each mouse), six (6) mice per group. In a second group, cancer cells were mixed with Matrigel at the same 1:2 ratio (100 uL cells: 200 ul Matrigel) except, human recombinant NME7-AB was added into the cell/Matrigel mix to a final NME7 concentration of 16 nM (6 mice). Of those six (6) mice, three (3) were randomly chosen to receive NME7 injections daily (100 uL at 32 nM), after day 14. […] After Day 14, the mice whose tumor cells were mixed with NME7 were also injected once daily with human recombinant NME7. […] After Day 14, half of the mice were also injected once daily with human recombinant NME7. […] Dashed lines indicate mice that were also injected with NME7 after Day 14.

B1: NME7-AB: recombinant human NME7 variant (A and B domains, SEQ ID NO:39) secreted as a monomer; 'NME7' in the experiments means this protein (protein)
chain: MEKTLALIKPDAISKAGEIIEIINKAGFTITKLKMMMLSRKEALDFHVDHQSRPFFNELIQFITTGPIIAMEILRDDAICEWKRLLGPANSGVARTDASESIRALFGTDGIRNAAHGPDSFASAAREMELFFPSSGGCGPANTAKFTNCTCCIVKPHAVSEGLLGKILMAIRDAGFEISAMQMFNMDRVNVEEFYEVYKGVVTEYHDMVTEMYSGPCVAMEIQQNNATKTFREFCGPADPEIARHLRPGTLRAIFGKTKIQNAVHCTDLPEDGLLEVQYFFKILDN
modifications: Human NME7-AB
notes: 'NME7' in the experiments means this protein
Cancer cells mixed with NME7 prior to implantation alone
  engraftment rate: 33%
Mixed with NME7 prior to implantation plus NME7 injections into the animal after cell implantation
  engraftment rate: 66%
Of six (6) implanted mice, T47D mixed with Matrigel and NME7 (two of six with standard Matrigel)
  implanted mice showing tumor growth characteristic of engraftment: 4
Tumors mixed with NME7 prior to implantation (57% without it)
  average growth increase from Day 7 until day 21: 144%
